Measurements from US20070265189A1 (published 2007).

target: T1, Soluble IGF-1R (sIGF-1R), R&D Systems Cat. # 391-GR/CF (UniProt P08069 31-935, limits assumed); test: phage ELISA
T1 construct: extracellular domain

Binder	IGF-1R/IR comparison	Ratio over Background
RFSTDGFYQYLLALVGGGPVG [20E2B-1-A11-IGFR]	9.7	9.5
NSRDGGFYLQLERLLGFPVTG [20E2B-3-D4-IGFR]	9.6	7.9
SACQFDCHENFYDWFARQVSGGAAYG [H2CA-4-H8-IGFR]	9.4	9.2
QPAPDGFYSALMKLIGRGGVS [20E2B-3-C8-IGFR]	8.9	15.6
PGTDLGFYQALRCVVIQGACD [20E2B-2-B2-IGFR]	8.1	4.9
AQPCGGFYGLLEQLVGRSVCD [20E2B-4-F10-IGFR]	7.8	17.3
QPDHSYFYSLLQELVGSEERL [20E2B-4-F9-IGFR]	7.7	14.7
QFYGCLLDLSLGVPSFGWRRRCITA [20C-3-A4-IGFR]	7.6	8.8
LGVTDGFYAALGYLIHGVGQF [20E2B-3-D11-IGFR]	7.6	12.2
ICTGQGFYQVLCGLLRGTSAR [20E2B-2-B3-IGFR]	7.4	5.3
QGNVLDFYGWIGRLLAKQGSD [20E2B-3-D12-IGFR]	7.3	6.2
SAAQLFFQESFYDWFLRQVAESSQPN [H2CA-4-F11-IGFR]	6.7	6.8
VATSQGFYSGLSELLQGGGNV [20E2B-3-E12-IGFR]	7.3	6
IWATGDFYRLLSQLVMGRVGT [20E2B-2-B8-IGFR]	7.2	5.7
EGSGFYGYFFSLLGLQG [NNRPγ-4-A9-IR]	7.1	10
RQGTGSFYLMLEQLLVGARGP [20E2B-4-G11-IGFR]	7	4.5
DSVGDNFYQLLESLVGGHGVG [20E2B-3-D6-IGFR]	6.9	17.8
RGIVAMVEATEVGSDHDPFYHKLSELVQGS [B6Hα-2-C7-IR]	6.7	6.7
LSSDGQFYRALNLLLQGSAGR [20E2B-2-B7-IGFR]	6.7	6.1
ASSASGFYELLQRLAGLGLEV [20E2B-3-C4-IGFR]	6.2	20.4

Binder	IGF-1R/IR comparison	Ratio over Background
FFYRCLSRLLGGQLGSRLGLSCIGD [20C-3-E4-IGFR]	6	7.7
IIGGFYSYFNSVLRLGT [NNRPγ-4-A1-IR]	6	10.9
AVRATRFDEAFYDWFVRQISDGQGNK [H2CA-4-F6-IGFR]	6.4	7.3
PAGPCGFYCGLGLLLHGDQSP [20E2B-4-H8-IGFR]	5.9	5.3
RCQGTGFYTCIQELIGFGDPD [20E2B-4-H9-IGFR]	5.6	5.2
SGAKVIVVTGDSGDPFYHKLSELLQGS [B6Hα-2-C10-IR]	5.3	5.8
VGTVAGFYDAIAQLVARASRV [20E2A-3-C7-IGFR]	5.1	5.4
TLRSPTFYDWLEMVLTHGQGG [20E2B-1-A8-IGFR]	5	4.4
RFDPFYSYFVNLLGASA [NNRPγ-4-A7-IR]	4.9	6.3
RGKTAAVIVGRPADPFYHKLSELLQGG [B6Hα-3-E8-IR]	4.8	5.3
GCVVEWQKWHGASDPFYHKLSELGGCS [B6Hα-3-F10-IR]	4.6	8.8
GRTMAVMAAGGPDDPFYHKLSELVQGG [B6Hα-2-D6-IR]	4.4	4.4
GCAVVEEAERSRGDPFYHKLSELIQGC [B6Hα-3-E7-IR]	4.3	5.6
VNQSGSIHENFYDWFERQVSHQRGVR [H2CA-4-F10-IGFR]	5.9	5.7
GCEVIVEEGDSADPFYHKLSELCQGS [B6Hα-2-D1-IR]	4.2	5.4
MMVVDGFYDALHQLVVAQSLG [20E2A-3-D10-IGFR]	3.9	6.9
LSVALSFYDALGQLVAGEGRW [20E2A-3-A12-IGFR]	3.9	4.3
GGTKAVAKVGTRDDPFYHKLSELLQGS [B6Hα-4-G8-IR]	3.6	6.1
AETSVQVGWIRLQSVWPGEHWNTVDPFYHKLSELLRGSGA [B6L-4-D7-IR]	3.4	4.8

target: T2, soluble human insulin receptor-immunoglobulin heavy chain chimera (sIR-Fc; Bass et al., 1996) (human, UniProt P06213 28-956, limits assumed); test: phage ELISA
T2 construct: extracellular domain; also called soluble IR (Bass construct); not shown: immunoglobulin heavy chain constant domains

Binder	IR/IGF-1R comparison	Ratio over Background
RFSTDGFYQYLLALVGGGPVG [20E2B-1-A11-IGFR]	0.1	1
NSRDGGFYLQLERLLGFPVTG [20E2B-3-D4-IGFR]	0.1	0.8
SACQFDCHENFYDWFARQVSGGAAYG [H2CA-4-H8-IGFR]	0.1	1
QPAPDGFYSALMKLIGRGGVS [20E2B-3-C8-IGFR]	0.1	1.8
PGTDLGFYQALRCVVIQGACD [20E2B-2-B2-IGFR]	0.1	0.6
AQPCGGFYGLLEQLVGRSVCD [20E2B-4-F10-IGFR]	0.1	2.2
QPDHSYFYSLLQELVGSEERL [20E2B-4-F9-IGFR]	0.1	1.9
QFYGCLLDLSLGVPSFGWRRRCITA [20C-3-A4-IGFR]	0.1	1.2
LGVTDGFYAALGYLIHGVGQF [20E2B-3-D11-IGFR]	0.1	1.6
ICTGQGFYQVLCGLLRGTSAR [20E2B-2-B3-IGFR]	0.1	0.7
QGNVLDFYGWIGRLLAKQGSD [20E2B-3-D12-IGFR]	0.1	0.9
SAAQLFFQESFYDWFLRQVAESSQPN [H2CA-4-F11-IGFR]	0.1	1
VATSQGFYSGLSELLQGGGNV [20E2B-3-E12-IGFR]	0.1	0.8
IWATGDFYRLLSQLVMGRVGT [20E2B-2-B8-IGFR]	0.1	0.8
EGSGFYGYFFSLLGLQG [NNRPγ-4-A9-IR]	0.1	1.4
RQGTGSFYLMLEQLLVGARGP [20E2B-4-G11-IGFR]	0.1	0.6
DSVGDNFYQLLESLVGGHGVG [20E2B-3-D6-IGFR]	0.1	2.6
RGIVAMVEATEVGSDHDPFYHKLSELVQGS [B6Hα-2-C7-IR]	0.1	1
LSSDGQFYRALNLLLQGSAGR [20E2B-2-B7-IGFR]	0.1	0.9
ASSASGFYELLQRLAGLGLEV [20E2B-3-C4-IGFR]	0.2	3.3

Binder	IR/IGF-1R comparison	Ratio over Background
FFYRCLSRLLGGQLGSRLGLSCIGD [20C-3-E4-IGFR]	0.2	1.3
IIGGFYSYFNSVLRLGT [NNRPγ-4-A1-IR]	0.2	1.8
AVRATRFDEAFYDWFVRQISDGQGNK [H2CA-4-F6-IGFR]	0.2	1.1
PAGPCGFYCGLGLLLHGDQSP [20E2B-4-H8-IGFR]	0.2	0.9
RCQGTGFYTCIQELIGFGDPD [20E2B-4-H9-IGFR]	0.2	0.9
SGAKVIVVTGDSGDPFYHKLSELLQGS [B6Hα-2-C10-IR]	0.2	1.1
VGTVAGFYDAIAQLVARASRV [20E2A-3-C7-IGFR]	0.2	1.1
TLRSPTFYDWLEMVLTHGQGG [20E2B-1-A8-IGFR]	0.2	0.9
RFDPFYSYFVNLLGASA [NNRPγ-4-A7-IR]	0.2	1.3
RGKTAAVIVGRPADPFYHKLSELLQGG [B6Hα-3-E8-IR]	0.2	1.1
GCVVEWQKWHGASDPFYHKLSELGGCS [B6Hα-3-F10-IR]	0.2	1.9
GRTMAVMAAGGPDDPFYHKLSELVQGG [B6Hα-2-D6-IR]	0.2	1
GCAVVEEAERSRGDPFYHKLSELIQGC [B6Hα-3-E7-IR]	0.2	1.3
VNQSGSIHENFYDWFERQVSHQRGVR [H2CA-4-F10-IGFR]	0.2	1
GCEVIVEEGDSADPFYHKLSELCQGS [B6Hα-2-D1-IR]	0.2	1.3
MMVVDGFYDALHQLVVAQSLG [20E2A-3-D10-IGFR]	0.3	1.8
LSVALSFYDALGQLVAGEGRW [20E2A-3-A12-IGFR]	0.3	1.1
GGTKAVAKVGTRDDPFYHKLSELLQGS [B6Hα-4-G8-IR]	0.3	1.7
AETSVQVGWIRLQSVWPGEHWNTVDPFYHKLSELLRGSGA [B6L-4-D7-IR]	0.3	1.4
